Data as given in PMC8395503, “Epitope Mapping of Monoclonal Antibodies to Calreticulin Reveals That Charged Amino Acids Are Essential for Antibody Binding” (Antibodies, 2021).

B1: full-length recombinant wild-type calreticulin (natural protein, human, UniProt P27797 18-417, looked up)
chain: EPAVYFKEQFLDGDGWTSRWIESKHKSDFGKFVLSSGKFYGDEEKDKGLQTSQDARFYALSASFEPFSNKGQTLVVQFTVKHEQNIDCGGGYVKLFPNSLDQTDMHGDSEYNIMFGPDICGPGTKKVHVIFNYKGKNVLINKDIRCKDDEFTHLYTLIVRPDNTYEVKIDNSQVESGSLEDDWDFLPPKKIKDPDASKPEDWDERAKIDDPTDSKPEDWDKPEHIPDPDAKKPEDWDEEMDGEWEPPVIQNPEYKGEWKPRQIDNPDYKGTWIHPEIDNPEYSPDPSIYAYDNFGVLGLDLWQVKSGTIFDNFLITNDEAYAEEFGNETWGVTKAAEKQMKDKQDEEQRLKEEEEDKKRKEEEEAEDKEDDEDKDEDEEDEEDKEEDEEEDVPGQAKDEL
notes: calreticulin, human, Prot id P27797; called full-length recombinant wt CRT; Oligomers formed after heat treatment (57 °C 10 min, with or without 42 °C for 3 days); also called CRT; wt CRT; source: recombinant, produced using standard protocols and purified as previously described by Čiplys and colleagues [39]
B2: calreticulin purified from human placenta (natural protein, UniProt P27797 18-417, looked up)
chain: B1 chain
notes: calreticulin, human, Prot id P27797, purified from placenta; Heat-treated (57 °C 10 min) before native PAGE; also called CRT; human CRT purified from human placenta; source: purified from human placenta

Molecular target: the molecule itself
Test: native gel or EMSA; native PAGE, 4-20% Tris-glycine gel, native running buffer pH 7.5, Coomassie staining; samples in native sample buffer heated 10 min at 57 °C (recombinant CRT with or without 3 days at 42 °C)

Protein	binding result
B1	binds
B2	binds
